In US20190225694A1 (ZAKLADY FARMACEUTYCZNE POLPHARMA, published 2019):
Values belong to the binder of their own block, whether it stands above or below them.

What was measured:
[1] = target: T1, integrin α4β1 (coated, direct ELISA) (UniProt P13612 34-970; P05556 21-728, limits assumed); test: direct ELISA, coated integrin α4β1, anti-human IgG-HRP detection, 4PL fit
T1 construct: Coated on the plate in the direct ELISA; also called α4β1 integrin; VLA-4
Experimental: The principle of this method is to incubate a coated constant amount of integrin α4β1 with serially diluted natalizumab samples. The amount of bound natalizumab is subsequently determined by a mouse, monoclonal anti-human IgG antibody, which is conjugated to horseradish peroxidase (HRP). HRP converts the chromogenic substrate TMB (3,3′,5,5′-tetramethylbenzidine) into a colored dye. The color reaction is measured spectrophotometrically at wavelength 450 nm.
Data are analyzed applying 4 Parameter Logistic nonlinear regression model (4PL), which is commonly used for curve-fitting analysis in bioassays or immunoassays such as ELISAs or dose-response curves. Final result is expressed as a Relative Potency (REP) of tested sample in relation to interim reference standard established at Polpharma site. The method variability was determined at the level of 7% coefficient variation (CV) of intermediate precision within the qualification exercise.

HIS-tagged α4β1 integrin = HIS-tagged α4β1 integrin (UniProt P13612 34-970; P05556 21-728, limits assumed); test: competitive ELISA, coated VCAM-1 as competitor, HIS-tagged α4β1 integrin in solution, 4PL fit
Experimental: Constant amount of the coated VCAM-1 protein is incubated with serial dilutions of natalizumab in the presence of HIS-tagged α4β1 integrin. Solid-phase associated VCAM-1 and soluble natalizumab now compete for binding to α4β1 integrin. The higher the natalizumab concentration the more α4β1 Integrin is inhibited from binding to VCAM-1. The highest signal result is observed when no natalizumab is present. Bound HIS-tagged α4β1 integrin is subsequently detected with a biotinylated anti-HIS-tag antibody, POD-conjugated Streptavidin and a TMB-substrate reaction at the end of the assay.
(§1) Data are analyzed with 4PL fitting model. Final result is expressed as a Relative Potency (REP) of tested sample in relation to reference standard. The method variability was determined at the level of 7% coefficient variation (CV) of intermediate precision within the qualification exercise. Additionally accuracy, linearity and specificity were tested.

α4β7 integrin = α4β7 integrin (UniProt P13612 34-970; P26010 20-723); test: competitive ELISA, coated α4β7 integrin, Fc-tagged MadCAM-1 as competitor, bound antibody detected with anti-human IgG-POD, 4PL fit
Experimental: Constant amount of the coated α4β7 integrin is incubated with serial dilutions of natalizumab in the presence of Fc-tagged MadCAM-1 receptor. natalizumab and MadCAM-1 receptor now compete for binding to solid-phase associated α4β7 integrin. The higher the natalizumab concentration the more MadCAM-1 is inhibited from binding to α4β7 integrin. The lowest signal result is observed when no natalizumab is present. Bound natalizumab is subsequently detected with a POD-conjugated anti-human IgG antibody and a TMB-substrate reaction at the end of the assay.
as §1, with “8%” for “7%”

Relative Potency (REP), average [1]: 0.769 relative to interim reference standard
Relative Potency (REP), max [1]: 0.847 relative to interim reference standard
Relative Potency (REP), min [1]: 0.723 relative to interim reference standard
Relative Potency (REP), average (HIS-tagged α4β1 integrin): 0.829 relative to reference standard
Relative Potency (REP), max (HIS-tagged α4β1 integrin): 0.842 relative to reference standard
Relative Potency (REP), min (HIS-tagged α4β1 integrin): 0.805 relative to reference standard
Relative Potency (REP), average (α4β7 integrin): 0.81 relative to reference standard
Relative Potency (REP), max (α4β7 integrin): 0.857 relative to reference standard
Relative Potency (REP), min (α4β7 integrin): 0.738 relative to reference standard
B1: natalizumab biosimilar antibody produced by CHO DG44 Clone 1 (antibody, human IgG4, kappa, V domains shown)
VH: QVQLVQSGAEVKKPGASVKVSCKASGFNIKDTYIHWVRQAPGQRLEWMGRIDPANGYTKYDPKFQGRVTITADTSASTAYMELSSLRSEDTAVYYCAREGYYGNYGVYAMDYWGQGTLVTVSS
VL: DIQMTQSPSSLSASVGDRVTITCKTSQDINKYMAWYQQTPGKAPRLLIHYTSALQPGIPSRFSGSGSGRDYTFTISSLQPEDIATYYCLQYDNLWTFGQGTKVEIKR
notes: Tested product from the clone selection step; full-length IgG4

Relative Potency (REP), average [1]: 0.679 relative to interim reference standard
Relative Potency (REP), max [1]: 0.732 relative to interim reference standard
Relative Potency (REP), min [1]: 0.611 relative to interim reference standard
Relative Potency (REP), average (HIS-tagged α4β1 integrin): 0.903 relative to reference standard
Relative Potency (REP), max (HIS-tagged α4β1 integrin): 0.93 relative to reference standard
Relative Potency (REP), min (HIS-tagged α4β1 integrin): 0.85 relative to reference standard
Relative Potency (REP), average (α4β7 integrin): 0.831 relative to reference standard
Relative Potency (REP), max (α4β7 integrin): 0.858 relative to reference standard
Relative Potency (REP), min (α4β7 integrin): 0.79 relative to reference standard
B2: natalizumab biosimilar antibody produced by CHO DG44 Clone 2 (antibody, human IgG4, kappa, V domains shown)
VH: B1 VH
VL: B1 VL
notes: as for B1

Relative Potency (REP), average (HIS-tagged α4β1 integrin): 1.02 relative to reference standard
Relative Potency (REP), max (HIS-tagged α4β1 integrin): 1.15 relative to reference standard
Relative Potency (REP), min (HIS-tagged α4β1 integrin): 0.935 relative to reference standard
Relative Potency (REP), average (α4β7 integrin): 0.998 relative to reference standard
Relative Potency (REP), max (α4β7 integrin): 1.08 relative to reference standard
Relative Potency (REP), min (α4β7 integrin): 0.922 relative to reference standard
B3: natalizumab reference product (9 batches) (antibody, human IgG4, kappa, V domains shown)
VH: B1 VH
VL: B1 VL
